Measured values from patent US20250074996A1 (Innovent, published 2025).
Like-named read-outs stand apart in the source and are kept apart here.

What was measured:
[1] = biological target: T1, CD3E on the surface of Jurkat-NFAT-Luc cells (UniProt P07766 23-207); test: cell-based or functional assay
[2] = biological target: T2, human GPRC5D (human, UniProt Q9NZD1 1-345); test: flow cytometry on H929 cells
T2 construct: whole, on cells; also called huGPRC5D; G protein-coupled receptor family C group 5 member D
Method: (§1) The affinity of the anti-GPRC5D antibody was detected by flow cytometry. Antibodies at various concentrations were co-incubated with cells expressing human GPRC5D, including GS-CHO cells overexpressing human GPRC5D (huGPRC5D GS-CHO), multiple myeloma cells MM1.R, H929 and AMO-1, for 30 min. A fluorescently-labeled secondary antibody (APC-mouse anti-human IgG Fc antibody, Biolegend, Cat #409306) was then added, the cell fluorescence intensity was detected using a Live/Dead yellow dead cell stain (Thermo Fisher, Cat #L34967) by flow cytometry, a curve was fitted using GraphPad Prism 8.0, and the EC50 value was calculated to show the binding affinity of the antibody to human GPRC5D.
(§2) Among the antibodies detected, HB15H1G1 (the heavy chain variable region of SEQ ID NO: 25, and the light chain variable region of SEQ ID NO: 26) was a fully human antibody, and ch5E12C4 (the heavy chain variable region of SEQ ID NO: 98, and the light chain variable region of SEQ ID NO: 99), ch11B7 (the heavy chain variable region of SEQ ID NO: 100, and the light chain variable region of SEQ ID NO: 101) and ch7F5D4 antibodies (the heavy chain variable region of SEQ ID NO: 27, and the light chain variable region of SEQ ID NO: 28) were chimeric antibodies.

[3] = biological target: T2, human GPRC5D; test: flow cytometry on huGPRC5D-GS-CHO cells
Method: as §1, §2

[4] = biological target: T2, human GPRC5D; test: flow cytometry on AMO-1 cells
Method: as §1, §2

[5] = biological target: T2, human GPRC5D; test: flow cytometry on MM1.R cells
Method: as §1, §2

[6] = biological target: T1, CD3E on the surface of Jurkat-NFAT-Luc …; test: cell-based or functional assay; remark: listed apart in the source
[7] = biological target: T1, CD3E on the surface of Jurkat-NFAT-Luc …; test: cell-based or functional assay; remark: listed apart in the source
[8] = biological target: T1, CD3E on the surface of Jurkat-NFAT-Luc …; test: cell-based or functional assay; remark: listed apart in the source
[9] = biological target: T1, CD3E on the surface of Jurkat-NFAT-Luc …; test: cell-based or functional assay; remark: listed apart in the source

T1 sequence (P07766 23-207): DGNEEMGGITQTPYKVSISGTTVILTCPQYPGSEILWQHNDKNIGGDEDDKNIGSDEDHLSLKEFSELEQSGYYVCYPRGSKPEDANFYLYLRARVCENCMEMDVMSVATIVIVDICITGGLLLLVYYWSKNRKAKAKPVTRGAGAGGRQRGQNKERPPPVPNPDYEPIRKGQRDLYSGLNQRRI
T2 sequence (Q9NZD1 whole entry): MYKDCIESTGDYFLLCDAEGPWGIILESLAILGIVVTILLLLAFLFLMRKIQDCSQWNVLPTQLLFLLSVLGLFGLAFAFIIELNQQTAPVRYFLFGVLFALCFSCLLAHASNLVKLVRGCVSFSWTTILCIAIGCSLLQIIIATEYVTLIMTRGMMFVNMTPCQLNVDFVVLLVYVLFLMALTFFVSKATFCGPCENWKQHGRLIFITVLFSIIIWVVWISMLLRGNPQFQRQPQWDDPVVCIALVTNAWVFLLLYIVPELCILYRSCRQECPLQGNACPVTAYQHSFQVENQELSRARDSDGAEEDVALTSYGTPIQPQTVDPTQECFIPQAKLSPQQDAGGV

Row | Binder | EC50 of Jurkat-NFAT-Luc luciferase activation; tumor cells L363 [1] | EC50 of Jurkat-NFAT-Luc luciferase activation; tumor cells H929 [1] | EC50 [2] | EC50 [3] | EC50 [4] | EC50 [5] | further results
1 | TS-F2-1 (HB15H1G1/SP34.24/38456) (antibody, human IgG1, kappa, lambda, L234A L235A) heavy 1: not shown light 1: not shown heavy 2: not shown light 2: QAVVTQEPSLTVSPGGTVTLTCRSSTGAVTTSNYANWVQQKPGQAPRGLIGGTNKRAPGVPARFSGSLLGDKAALTLLGAQPEDEAEYYCALWYSNLWVFGQGTKLTVLGQPKAAPSVTLFPPSSEELQANKATLVCLISDFYPGAVTVAWKADSSPVKAGVETTTPSKQSNNKYAASSYLSLTPEQWKSHRSYSCQVTHEGSTVEKTVAPTECS | 0.24 nM |  |  |  |  |  | 
2 | TS-F2-2 (38456/SP34.24/HB15H1G1) (antibody, human IgG1, kappa, lambda, L234A L235A) heavy 1: not shown light 1: not shown heavy 2: not shown light 2: QAVVTQEPSLTVSPGGTVTLTCRSSTGAVTTSNYANWVQQKPGQAPRGLIGGTNKRAPGVPARFSGSLLGDKAALTLLGAQPEDEAEYYCALWYSNLWVFGQGTKLTVLGQPKAAPSVTLFPPSSEELQANKATLVCLISDFYPGAVTVAWKADSSPVKAGVETTTPSKQSNNKYAASSYLSLTPEQWKSHRSYSCQVTHEGSTVEKTVAPTECS | 0.13 nM | 0.01 nM |  |  |  |  | 
3 | ch11B7 (antibody, V domains shown) VH: EVQLQQSVAELARPGASVKMSCKASGYTFTTYTMHWVKQRPGQGLEWIGFIIPSSGYTSYNQNFKDKVTLTADKSSSTAYMQLSSLTSEDSAVYFCTGGQARAYYPLDYWGQGTSVTVSS VL: DIVMTQSPAILSVSPGERVSFSCRASQSIGTTIHWYQQRSNGSPRLLIKYASESISGIPSRFSGSGSGTYFTLSINSVESEDIADYFCQQSYNWPRTFGGGTKLEIK |  |  | 5.99 nM | 1.14 nM |  |  | 
4 | ch7F5D4 (antibody, V domains shown) VH: DVQLQESGPGLVKPSQSLSLTCTVTGYSITSDYAWNWIRQFPGNKLEWMVYIDYTGRTSYNPSLKSRISLTRDTSKNQFFLQFNSVTTEDTATYYCARGNYGRYYYVMDYWGQGTSVTVSS VL: DIQMTQTTSSLSASLGDRVTISCRASQDIRNYLNWYQQRPDGTIKLLIYYTSRLHSGVPSRFSGSGSGTDYSLTISNLDQEDFATYFCQQGNMLPWTFGGGTSLEIK |  |  | 7.3 nM | 2.59 nM | 6.3 nM | 0.5 nM | 
5 | ch5E12C4 (antibody, V domains shown) VH: EVQLQQSGPELVKPGASVKMSCKASGYTFIGYVMHWVKRKPGQGLEWIGYINPYNDVSQHNGKFKGKATLTSDKSSSTAYMELSSLTSEDSAVYYCAREGRLGLRVLAYWGQGTLVTVSA VL: not shown |  |  | 21.7 nM | 9.18 nM | 100 nM | 3.7 nM | 
6 | GPRC5D × CD3 (HB15H/hzsp34.24) (bispecific antibody, V domains shown) VH 1: QVQLVESGGGVVQPGRSLRLSCTASGFTFSSYGLHWVRQAPGKGLEWVAVIWYDGSNKYYIDSVKGRFIISRDNSKNTLYLQMNSLRAEDTAVYYCARFTMFRGITLDYWGQGTLVTVSS VL 1: DIQMTQSPSSLSASVGDRVTITCRASQRINSYLNWYQQKPGKAPKLLIYAASSLQSGVPSRFSGSGSGTDFTLTISNLQPEDFATYYCQQSYSTPLTFGGGTKVEIK VH 2: EVQLVESGGGLVQPGGSLKLSCAASGFTFNTYAMNWVRQASGKGLEWVGRIRSKYNNYATYYADSVKDRFTISRDDSKSTLYLQMNSLKTEDTAVYYCARHGNFGQSYVSWFAYWGQGTTVTVSS VL 2: QAVVTQEPSLTVSPGGTVTLTCRSSTGAVTTSNYANWVQQKPGQAPRGLIGGTNKRAPGVPARFSGSLLGDKAALTLLGAQPEDEAEYYCALWYSNLWVFGQGTKLTVL | 0.28 nM | 0.01 nM |  |  |  |  | 
7 | HB15H1G1 (antibody, V domains shown, Fully human anti-GPRC5D antibody; also called HB15H1B1) VH: QVQLVESGGGVVQPGRSLRLSCTASGFTFSSYGLHWVRQAPGKGLEWVAVIWYDGSNKYYIDSVKGRFIISRDNSKNTLYLQMNSLRAEDTAVYYCARFTMFRGITLDYWGQGTLVTVSS VL: DIQMTQSPSSLSASVGDRVTITCRASQRINSYLNWYQQKPGKAPKLLIYAASSLQSGVPSRFSGSGSGTDFTLTISNLQPEDFATYYCQQSYSTPLTFGGGTKVEIK |  |  | 3.7 nM | 1.89 nM | 9.4 nM | 0.7 nM | 
8 | BCMA×CD3 bispecific antibody 46758 (bispecific antibody, human IgG1, kappa, L234A L235A) chain 1: not shown chain 2: not shown chain 3: DIVMTQSPDSLAVSLGERATINCKSSQSLLNARTGKNYLAWYQQKPGQPPKLLIYWASTRESGVPDRFSGSGSGTDFTLTISSLQAEDVAVYYCKQSYSRRTFGCGTKVEIKGGGGSGGGGSGGGGSGGGGSQVQLVQSGAEVKKPGASVKVSCKASGFNIKDYYMHWVRQAPGQCLEWMGWIDLENANTVYNAKFQGRVTITRDTSASTAYMELSSLRSEDTAVYYCARDAYGRYFYDVWGQGTLVTVSSGSEPKSSDKTHTCPPCPAPEAAGGPSVFLFPPKPKDTLMISRTPEVTCVVVDVSHEDPEVKFNWYVDGVEVHNAKTKPREEQYNSTYRVVSVLTVLHQDWLNGKEYKCKVSNKALPAPIEKTISKAKGQPREPQVCTLPPSRDELTKNQVSLSCAVKGFYPSDIAVEWESNGQPENNYKTTPPVLDSDGSFFLVSKLTVDKSRWQQGNVFSCSVMHEALHNHYTQKSLSLSPGK | 0.43 nM | 0.07 nM |  |  |  |  | EC50 of Jurkat-NFAT-Luc luciferase activation; target cells huGPRC5D-GS-CHO [6]: 0.0059 nM; EC50 of Jurkat-NFAT-Luc luciferase activation; tumor cells H929 [6]: 0.344 nM; EC50 of Jurkat-NFAT-Luc luciferase activation; tumor cells L363 [6]: 0.192 nM; EC50 of Jurkat-NFAT-Luc luciferase activation; tumor cells U266 [6]: 0.0311 nM; EC50 of Jurkat-NFAT-Luc luciferase activation; tumor cells 8226 [7]: 0.0798 nM; EC50 of Jurkat-NFAT-Luc luciferase activation; tumor cells H929 [7]: 0.0835 nM; EC50 of Jurkat-NFAT-Luc luciferase activation; tumor cells L363 [7]: 0.0901 nM; EC50 of Jurkat-NFAT-Luc luciferase activation; tumor cells U266 [7]: 0.603 nM; EC50 of Jurkat-NFAT-Luc luciferase activation; tumor cells ARD [8]: 0.133 nM; EC50 of Jurkat-NFAT-Luc luciferase activation; tumor cells MM.1S [8]: 0.159 nM; EC50 of Jurkat-NFAT-Luc luciferase activation; tumor cells 8226 [9]: 0.0798 nM; EC50 of Jurkat-NFAT-Luc luciferase activation; tumor cells H929 [9]: 0.0835 nM; EC50 of Jurkat-NFAT-Luc luciferase activation; tumor cells L363 [9]: 0.0901 nM; EC50 of Jurkat-NFAT-Luc luciferase activation; tumor cells U266 [9]: 0.603 nM
